Test results reported in paper PMC10864358, “Structural and mechanistic characterization of bifunctional heparan sulfate N-deacetylase-N-sulfotransferase 1” (Nature Communications, 2024).

B1: nAb5 (VHH)
VHH: QVQLVESGGGLVQAGGSLRLSCAASGRTFSSYVMGWFRQAPGKEREFVAAISWSGGTTDYAGSVKGRFTISRDNDRKTMYLEMNDLKPEDTALYYCNFKETWPRTGDYWGPGTQVTVSS
notes: llama VHH from an NDST1-immunized library, selected by phage display; also called anti-NDST1 nanobody 5; source: E. coli WK6, periplasmic extract, purified (HisTrap, SEC)
B2: nAb13 (VHH)
VHH: QVQLVESGGGLVQSGGSLRLSCTASRRASSTIGWFRQAPGKEREFVAGINWSLETATYQDSIKDRFTISRDNANNTVYLQMNSLKPEDTAVYYCAASPYRVMGDTTLYPYWGQGTQVTVSS
notes: in PDB 8CHS nAb13 is modeled only as an all-Calpha chain derived from the nAb7 structure; llama VHH from an NDST1-immunized library, selected by phage display; also called anti-NDST1 nanobody 13; source: E. coli WK6, periplasmic extract, purified (HisTrap, SEC)
B3: nAb6 (VHH)
VHH: QVQLVESGGDLVQPGGSLRLSCAASKTIFVISDMGWYRQAPGKQRELVAMITSGGTTNYADSVKGRFTISRDNTQNTVWLQMNSLKPEDTAVYYCYARVERWRPTDSWGQGTQVTVSS
notes: llama VHH from an NDST1-immunized library, selected by phage display; also called anti-NDST1 nanobody 6; source: E. coli WK6, periplasmic extract, purified (HisTrap, SEC)
B4: nAb7 (VHH)
VHH: QVQLVESGGGSVQAGGSLRLSCAASGFNVDDYAIGWFRQSPGKEREGVSCIGGDGTTYYENSVKGRFTVSSDKRDNTVYLQMNNLRPEDTAIYFCAADRSKYCVGKYFSTPSQYDFWGRGTHVTVSS
notes: llama VHH from an NDST1-immunized library, selected by phage display; Long CDR3 loop R98-F116; also called anti-NDST1 nanobody 7; source: E. coli WK6, periplasmic extract, purified (HisTrap, SEC)
B5: nAb1 (VHH)
VHH: QVQLVESGGGLVQAGGSLRLSCAASDRTFTTYAMAWFRRAPPGKEREFVASIRWDGFGTYYTDSVKGRFTISRDSAKNEAYLQMNSLRPEDTGVYYCAAGLLFGNTKGYDHWGQGTQVTVSS
notes: llama VHH from an NDST1-immunized library, selected by phage display; also called anti-NDST1 nanobody 1; source: E. coli WK6, periplasmic extract, purified (HisTrap, SEC)

What was measured:
[1] = molecular target: T1, biotinylated C-terminal Avitagged NDST1 (Homo sapiens, UniProt P52848, biotin on the C-terminal Avitag (BirA biotin-protein ligase)); test: SPR; biotinylated NDST1 immobilised on a BiotinCAP sensor chip (Biacore T200), nanobody titrated from 10 µM, 25 °C, 20 mM MES pH 6.5, 100 mM NaCl, 0.05% Tween-20; steady-state responses fitted to a 1:1 model; details: both partners purified
T1 construct: human N-deacetylase-N-sulfotransferase 1 (NDST1) with a C-terminal Avitag, made by PCR with tailed primers and subcloned into pOMNIBac; also called biotinylated NDST1; source: insect cells (baculovirus, pOMNIBac), purified; biotinylated with the BirA kit, then a final round of SEC; not shown: Avitag, C-terminal, kept
T1 sequence (P52848 79-882): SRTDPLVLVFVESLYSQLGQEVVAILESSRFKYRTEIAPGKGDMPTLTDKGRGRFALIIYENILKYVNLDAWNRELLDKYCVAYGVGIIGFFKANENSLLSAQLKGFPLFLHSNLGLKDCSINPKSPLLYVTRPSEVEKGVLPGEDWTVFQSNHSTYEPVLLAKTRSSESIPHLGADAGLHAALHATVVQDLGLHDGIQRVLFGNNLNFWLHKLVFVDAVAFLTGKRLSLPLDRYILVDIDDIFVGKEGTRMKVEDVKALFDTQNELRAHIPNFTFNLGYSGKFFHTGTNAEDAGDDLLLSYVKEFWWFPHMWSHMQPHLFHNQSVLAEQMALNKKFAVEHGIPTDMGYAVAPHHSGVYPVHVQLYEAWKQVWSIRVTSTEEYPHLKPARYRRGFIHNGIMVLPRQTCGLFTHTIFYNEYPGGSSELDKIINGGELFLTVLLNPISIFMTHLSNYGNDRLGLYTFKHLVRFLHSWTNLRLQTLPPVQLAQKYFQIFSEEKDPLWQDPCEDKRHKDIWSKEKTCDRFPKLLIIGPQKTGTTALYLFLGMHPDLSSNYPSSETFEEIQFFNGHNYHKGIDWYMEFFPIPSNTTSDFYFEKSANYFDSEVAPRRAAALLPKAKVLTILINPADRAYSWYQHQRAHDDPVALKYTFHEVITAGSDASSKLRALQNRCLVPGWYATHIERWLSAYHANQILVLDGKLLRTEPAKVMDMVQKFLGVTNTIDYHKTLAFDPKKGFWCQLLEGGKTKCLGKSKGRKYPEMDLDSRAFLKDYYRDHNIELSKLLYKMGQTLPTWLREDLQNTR

[2] = molecular target: T2, solubilized recombinant NDST1 (residues 79-882), bifunctional heparan sulfate … (human, UniProt P52848); test: differential scanning fluorimetry; NDST1 (1 µg) in 20 µL PBS pH 7.4 with 20X Sypro Orange, with 10.8 µM nAb; 25 to 95 °C; details: both partners purified
T2 construct: human N-deacetylase-N-sulfotransferase 1 (NDST1), residues 79-882, truncated at P78/S79 to remove the N-terminal transmembrane helix and a linker region; secreted behind a honeybee melittin secretion peptide; 6xHis tag cleaved with TEV protease; also called NDST1(79-882); solubilized NDST1; not shown: 6xHis, N-terminal, cleaved
T2 sequence (P52848 79-882): as above

[3] = molecular target: T2, solubilized recombinant NDST1 (residues …); test: cell-based or functional assay
[4] = molecular target: T2, solubilized recombinant NDST1 (residues …); test: cell-based or functional assay; remark: listed apart in the source
[5] = molecular target: T1, biotinylated C-terminal Avitagged NDST1; test: BLI; biotinylated NDST1 immobilised on Octet SA biosensors, nanobodies in PBS-T, 25 °C, 1000 rpm; steady-state responses fitted to a 1:1 model; details: both partners purified

Binder | Kd [1] | stabilization of NDST1 thermal denaturation with 10.8 µM nAb [2] | KI of inhibition of NDST1 activity (fluorometric coupled enzyme assay with Sult1a1-K65E-R68G, K5 substrate; Morrison equation) [3] | fold enhancement of NDST1 activity in the coupled enzyme assay [4] | kcat of NDST1 with respect to K5 with 30 µM nAb13, against NDST1 alone (0.26 min^-1 vs 0.14 min^-1) [4] | Kd [5] | EC50 of enhancement of NDST1 activity (fluorometric coupled enzyme assay with Sult1a1-K65E-R68G, K5 substrate) [3] | fold decrease in kcat/KM of NDST1 with respect to K5 with 30 µM nAb7, against NDST1 alone (0.06 vs 0.18 min^-1 mg^-1 mL) [4]
B1 | 570 nM | ~2.6 °C | 3300 nM |  |  |  |  | 
B2 | 530 nM | ~1.9 °C |  | ~2 fold | ~86% | 240 nM | 450 nM | 
B3 | 840 nM |  |  |  |  | 470 nM |  | 
B4 | 220 nM | ~4.4 °C | 240 nM |  |  | 120 nM |  | ~3 fold
B5 | 2370 nM |  |  |  |  | 2670 nM |  | 
